Here are results for one substance from patent publication US20140220070A1, “USE OF PLANT CELL MEMBRANE TREATMENT OF OBESITY” (Thylabisco AB, priority 2005, published 2014).

The assay deals with T1, pancreatic lipase (Homo sapiens, UniProt P16233).
T1 sequence (P16233 17-465): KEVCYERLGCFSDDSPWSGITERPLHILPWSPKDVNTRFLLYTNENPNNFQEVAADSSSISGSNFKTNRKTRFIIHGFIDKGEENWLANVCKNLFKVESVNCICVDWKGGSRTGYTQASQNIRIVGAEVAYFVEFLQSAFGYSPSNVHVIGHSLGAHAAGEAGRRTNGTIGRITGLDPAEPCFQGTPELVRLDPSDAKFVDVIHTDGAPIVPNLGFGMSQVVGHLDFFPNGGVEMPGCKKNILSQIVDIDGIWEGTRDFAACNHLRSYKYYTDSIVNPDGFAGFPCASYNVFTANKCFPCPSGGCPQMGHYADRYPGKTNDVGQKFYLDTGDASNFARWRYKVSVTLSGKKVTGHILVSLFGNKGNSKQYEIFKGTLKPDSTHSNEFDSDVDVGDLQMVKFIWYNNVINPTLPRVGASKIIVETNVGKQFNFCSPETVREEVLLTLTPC
The assay can be described thus: Measurement of the lipase activity (pH stat, tributyrin). Format: biochemical. As to conditions: increasing amounts of membranes/proteins, lipase + colipase, pH 7.0, curves only in FIG. 1-3. Here is the method:
The lipase activity was measured according to the following (Borgstrom B. and Erlanson C. European J. of Biochemistry 37: 60-68, 1973): 15 ml of an aqueous solution containing 1 mM Tris buffer pH 7.0, 1 mM calcium chloride, 150 mM sodium chloride, 4 mM sodiumtaurodeoxycholate, 0.5 μg lipase, 1 μg of colipase.
To this mixture 0.5 ml of tributyrin is added together with increasing amounts of membranes and the released fatty acids measured using a pH stat.

In the case of “transhydrogenase: isolated membrane protein, transhydrogenase prepared from E. coli”, the “inhibition of pancreatic lipase” value is on record as “inhibition”.
